For experiment [1], the target named is HLA-A*02 (on target cells) (human). Nature of the experiment: cell-based or functional assay.
For experiment [2], the target named is HLA-A*02 blocker antigen on beads (human). Nature of the experiment: cell-based or functional assay.

For “HLA-A*02 PA2.1 ScFv LIR1 inhibitor (C1765) (from UniProt Q8NHL6 399-650) (receptor)”, in experiment [1], the Emax shift of the CD19-CAR activator in Jurkat cells was over 10 fold; the inhibition of IFNγ induction in primary T cells (MSLN CAR), HeLa target cells expressing HLA-A*02 is over 5 fold; the inhibition of IFNγ induction in primary T cells (MSLN CAR), SiHa target cells expressing HLA-A*02 is over 10 fold; the shift of the CD19 CAR EMAX, NALM6 target cells is over 5 fold. In addition, in experiment [1], the shift of the EGFR CAR (CT479) EMAX, Jurkat NFAT-luciferase, HLA-A*02 transduced HeLa target cells is over 5 fold; the shift of the EGFR CAR EMAX, HeLa target cells was over 5 fold; the shift of the EGFR CAR EMAX, Jurkat NFAT-luciferase, HCT116 target cells is 1.8 fold; the shift of the EGFR CAR EMAX, SiHa target cells was over 4 fold. For the same substance, in experiment [1], the shift of the MSLN CAR EMAX, K562 target cells was over 5 fold and the suppression of pan HLA scFv CAR activators, HLA-A*02-positive T2 cells, E:T 1:2 is under 25 fold. Besides, in experiment [2], the shift of the EGFR CAR EMAX, cell-free bead assay is over 9 fold and the shift of the MSLN CAR EMAX, cell-free bead assay was over 12 fold.

The record behind these values is patent publication US20240173352A1.
